Experimental data: PMC12596378, “Nonstructural Protein 1 Mediates HMGB1 Release by Targeting Histone H1.0 After Respiratory Syncytial Virus Infection In Vivo and In Vitro” (Inflammation, 2025)

Molecular target: T1, His-H1.0 fusion protein (histone H1.0) (UniProt P07305 2-194)
T1 construct: histone H1.0; Used in the pull-down and as analyte in SPR; source: E. coli BL21, purified (Ni-NTA Sepharose)
Assay: SPR; BIAcore T200; His-NS1 amine-coupled on a CM5 chip (600 RU); H1.0 at 0-500 nM in PBS flowed over, 30 uL/min, dissociation 360 s
Conditions: both partners purified

T1 sequence (P07305 2-194): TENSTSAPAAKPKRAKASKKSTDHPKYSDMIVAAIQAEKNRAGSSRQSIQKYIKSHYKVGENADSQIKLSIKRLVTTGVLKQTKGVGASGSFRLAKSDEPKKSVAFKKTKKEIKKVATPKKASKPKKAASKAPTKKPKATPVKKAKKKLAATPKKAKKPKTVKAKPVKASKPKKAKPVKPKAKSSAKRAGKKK

B1: His-NS1 fusion protein (respiratory syncytial virus nonstructural protein 1) (natural protein)
chain: MGSNSLSMIKVRLQNLFDNDEVALLKITCYTDKLIHLTNALAKAVIHTIKLNGIVFVHVITSSDICPNNNIVVKSNFTTMPVLQNGGYIWEMMELTHCSQPNGLLDDNCEIKFSKKLSDSTMTNYMNQLSELLGFDLNP
notes: nonstructural protein 1 (NS1) of respiratory syncytial virus; Immobilised by amine coupling on the CM5 chip; source: E. coli BL21, purified
Kd: 31.2 nM
kon: 25400 M⁻¹ s⁻¹
